The values that follow come from PMC10404610 (Biochemistry and Biophysics Reports, 2023).

No end group written: not given here.

Assay [1] addresses CCL21 (UniProt O00585). Description: NMR titration.
Assay [2] has as its target T1, CCL21 (Homo sapiens, UniProt O00585).
T1 sequence (O00585 24-134): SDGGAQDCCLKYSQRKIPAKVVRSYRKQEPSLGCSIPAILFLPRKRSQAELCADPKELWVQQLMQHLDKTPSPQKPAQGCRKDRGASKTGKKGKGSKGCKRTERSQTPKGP
Description: 2D 15N-1H HSQC NMR titration of [U-15N] CCL21 with PSGL1 1–15 peptide. The format is binding.

Usually Kd stands for the concentration at which binding is half-saturated. Read a high Kd as lower affinity.

As for PSGL1 residues 1-15 peptide, the Kd in assay [1] turned out to be 300 µM.

QTAEYEYLDYDFLPE [PSGL1 peptide] registered a Kd in assay [2] of 300 ± 100 µM.
